± gives the uncertainty stated by the source.
Assay: protein stability index of a GFP-peptide fusion (yeast GPS) (PSI 1-4); higher = more stable; sorted into four equal gates, so the index is relative within each strain
Outline: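 Sequencing reads from sorted gates were used to score each peptide. The library consisted of tiled 17-residue yeast protein peptides fused downstream of GFP on a Cherry-expressing plasmid, pooled and carried in yeast. Mid-log cultures in leucine-free medium were split into four equal gates by GFP/Cherry ratio, and each gate's plasmids were PCR-amplified and Illumina-sequenced. The protein stability index adds up, over all gates, the read frequency multiplied by the gate number.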

Sequence	protein stability index (doa10∆)	protein stability index (pdr5∆)	protein stability index (san1∆)	protein stability index (ubr1∆)
IKAPTVAADGKLVTYIV [YLR335W/NUP2]	1.61 ± 0.07	1.92 ± 0.059	1.55 ± 0.084	2.16 ± 0.048
IKDLQRAINKVLCTRLR [SIR2]	1.78 ± 0.063	1.33 ± 0.06	1.18 ± 0.11	1.54 ± 0.045
IKELEHLHDAVFVNTGL [SWP82]	2.94 ± 0.067	2.9 ± 0.058	3.06 ± 0.059	2.91 ± 0.05
IKKEEGKIDEAADILCE [RPN5]	3.1 ± 0.096	2.69 ± 0.12	2.95 ± 0.11	2.52 ± 0.069
IKKFAKLHMGTEDVRLA [RPL31B]	3.21 ± 0.21	3.21 ± 0.22	2.71 ± 0.15	2.73 ± 0.14
IKKPTSAVVSSNASRRK [RPN4]	2.47 ± 0.17	2.3 ± 0.17	2.36 ± 0.076	2.89 ± 0.27
IKNFKSLLLSSSFKEDC [SSN2]	2.82 ± 0.11	2.98 ± 0.094	2.96 ± 0.086	3.11 ± 0.086
IKNLGLPSDRCSKAMGD [RPP1]	3.36 ± 0.19	3.32 ± 0.13	3.25 ± 0.23	
IKVDGAVGNLGNAIEVT [RPL22B]	1.74 ± 0.12	2.4 ± 0.076	1.8 ± 0.14	1.58 ± 0.047
IKVLLRQNRRPELGDKF [RET1]	3.15 ± 0.25	3.49 ± 0.18	3.36 ± 0.09	3.41 ± 0.092
ILARNDEEMAVLTRMDE [SNF2]	3.04 ± 0.071	2.87 ± 0.079	2.37 ± 0.084	3.15 ± 0.047
ILDAICFVLGIASMSTV [SMC2]	1.45 ± 0.046	1.77 ± 0.054	1.78 ± 0.067	1.67 ± 0.06
ILDITDEELVSHFVSAV [RPP0]	2.99 ± 0.12	2.88 ± 0.14	3.01 ± 0.13	3.05 ± 0.071
ILDPSTEYCVGDYVAYQ [YMR129W/POM152]	2.83 ± 0.19	3.63 ± 0.18	2.47 ± 0.21	
ILEESLNAIILKLEKLN [SMC3]	1.66 ± 0.061	1.72 ± 0.062	1.5 ± 0.14	2.24 ± 0.07
ILGDLGKEFGTTPEKPE [FAS2]	2.83 ± 0.087	2.69 ± 0.072	2.51 ± 0.057	2.78 ± 0.066
ILGQTMSIGTGSFKVVK [RPO31]		2.47 ± 0.13	1.97 ± 0.12	2.99 ± 0.15
ILIESRIHRLARYYRTV [RPS13]	2.45 ± 0.11	2.06 ± 0.06	2.74 ± 0.087	2.1 ± 0.051
ILKKSLMTSHTKGDTSK [RTT102]	2.6 ± 0.11	3.05 ± 0.085	2.81 ± 0.085	3.05 ± 0.13
ILKTLERSICALGEFAD [YML031W/NDC1]	2.58 ± 0.053	3.04 ± 0.075	3.05 ± 0.065	2.78 ± 0.05
ILNELEVFIGRVKDQDG [YJR042W/NUP85]	3.06 ± 0.14	3.05 ± 0.18	3 ± 0.12	2.59 ± 0.059

Sequence	protein stability index (doa10∆)	protein stability index (pdr5∆)	protein stability index (san1∆)	protein stability index (ubr1∆)
ILNSHFDALRSLDDNST [YJL041W/NSP1]	2.36 ± 0.054	2.07 ± 0.046	2.53 ± 0.064	2.55 ± 0.036
ILQIREEIPSKSWDDSV [RRP6]	2.27 ± 0.078	2.76 ± 0.092	2.32 ± 0.084	2.7 ± 0.055
ILQNEHDYWNKIMQSIS [SRB4]	2.14 ± 0.079	2.37 ± 0.062	1.92 ± 0.11	2.35 ± 0.082
ILRDYGPQEAANAMNRM [RPO31]		1.83 ± 0.26	2.86 ± 0.22	
ILRKSFDFLMNMPNCDY [RPN2]	1.3 ± 0.099	1.1 ± 0.092	1.23 ± 0.12	1.16 ± 0.041
ILRSIPDKLLGVILMFA [COB]	2.35 ± 0.06	1.58 ± 0.046	1.65 ± 0.069	1.52 ± 0.054
ILSEILCQINKCSTRGL [YML103C/NUP188]	1.31 ± 0.088	1.55 ± 0.084	1.98 ± 0.097	2 ± 0.057
ILSNVDLAMANSLRRVM [RPB3]	2.75 ± 0.055	2.54 ± 0.047	2.66 ± 0.071	2.46 ± 0.037
ILTIIEEYKKSLYAYCH [GRR1]	2.38 ± 0.28	1.33 ± 0.21	2.27 ± 0.26	3.38 ± 0.24
ILTTAVGLVSPSFMLKH [RPN1]	1.96 ± 0.16	1.93 ± 0.12	1.3 ± 0.13	1.52 ± 0.077
ILVLALEDLKDVYASKV [PRP8]	2.29 ± 0.064	1.8 ± 0.057	2.85 ± 0.081	2.21 ± 0.066
ILYSFKLSGKLLKEEKI [YML103C/NUP188]	1.4 ± 0.059	1.6 ± 0.063	2.11 ± 0.1	2.49 ± 0.1
IMELPGVYSDDELLSQL [SRP68]	2.99 ± 0.065	3.13 ± 0.056	3.22 ± 0.045	3.05 ± 0.07
IMNELYRMKGGRVTFIP [SMC3]	2.12 ± 0.23			3.66 ± 0.16
IMQEAGLRAVRKNRYVI [RPT3]	2.89 ± 0.076	2.97 ± 0.099	2.91 ± 0.083	3.29 ± 0.13
INCNKETIENVKLQMIK [ECM29]	3.21 ± 0.097	3.03 ± 0.16	2.93 ± 0.089	3.4 ± 0.13
INELFKKYTQNNPLLLI [RPN8]	1.85 ± 0.071	1.48 ± 0.05	1.37 ± 0.14	1.11 ± 0.049
INELVLENFKSYAGKQV [SMC4]	2.69 ± 0.075	2.75 ± 0.057	2.39 ± 0.079	2.74 ± 0.049
INESAENFSNGISLVME [MED1]	3.35 ± 0.11	3.16 ± 0.07	3.07 ± 0.055	3.1 ± 0.045
INGWELTKAQKYLDQVL [RPL17B]	2.74 ± 0.2	2.9 ± 0.17	2.86 ± 0.1	2.74 ± 0.063

From the supplement of paper PMC9732359
